Assay [1] deals with T1, CR1.4 variant cyclic peptide (human, disulfide 1-13).
T1 peptide: H-CEKDQAQARAERCIPSVWR-{Lys(Aoa)-NH2}
As to the kind of experiment: BIACORE and direct ELISA. Background: Surface plasmon resonance follows binding to a sensor surface in real time, without labels.

The target of assay [2] is T2, Cynomolgus monkey LRP-8 expressed on HEK293 cells (cynomolgus monkey).
T2 construct: whole, on cells; also called cyno LRP-8; cLRP-8
The experiment in a line: FACS, cyno LRP8 cells.

The target of assay [3] is T3, CR1 cyclic peptide of human LRP-8 (human, disulfide 1-13).
T3 construct: also called CR1 peptide; conjugated human LRP-8 CR1 peptide
T3 peptide: CEKDQFQSRNERCIPSVWR-{Lys(Aoa)-NH2}
The experiment in a line: ELISA using CR1 peptide.

Assay [4] concerns the target T4, Human LRP-8 (isoform 3) expressed on cells (human, UniProt Q14114 33-963).
T4 construct: also called hLRP-8; huLRP-8
The experiment in a line: cell-based binding assay, hLRP8.

Assay [5] has as its target T2, Cynomolgus monkey LRP-8 expressed on …. The experiment in a line: cell-based binding assay, cynoLRP8.
The target of assay [6] is T5, CR1.1 variant cyclic peptide (human, disulfide 1-13).
T5 peptide: H-CEKDQAQSRNERCIPSVWR-{Lys(Aoa)-NH2}
The experiment in a line: ELISA, antibody titrated on coated CR1.1 peptide. The protocol:
(§1) High binding MSD plates (MSD Cat# L15XB-3/L11XB-3) were coated with 1 μg/ml of CR1 or CR2 peptide overnight at 4° C. The next day, the plate was blocked with 3% MSD blocking buffer (MSD Cat# R93AA-01) for 1 hour at RT. The plates were washed with TTBS buffer (20 mM Tris; 0.5% Tween, 150 mM sodium chloride; pH 7.5) three times and a titer of anti-LRP-8 human Fc Ab was added. After incubating for 1 hour at RT, plate was washed and anti-human SULFO-TAG Ab was added to the plate and incubated for 1 hour. The plates were washed and immersed in MSD read buffer T with surfactant (MSD Cat# R92TC-1) before reading on an MSD SECTOR Imager 6000. Data were obtained and analyzed using a GraphPad Prism 6 software package (GraphPad Software, Inc., La Jolla, Calif.).
A general note: In an ELISA, binding on a coated surface is turned into a signal by an enzyme label.

Assay [7] addresses T6, CR1.2 variant cyclic peptide (human, disulfide 1-13).
T6 peptide: H-CEKDQFQARNERCIPSVWR-{Lys(Aoa)-NH2}
As to the kind of experiment: ELISA, antibody titrated on coated CR1.2 peptide. The protocol:
as §1

Assay [8] concerns the target T7, CR1.3 variant cyclic peptide (human, disulfide 1-13).
T7 peptide: H-CEKDQFQSRAERCIPSVWR-{Lys(Aoa)-NH2}
As to the kind of experiment: ELISA, antibody titrated on coated CR1.3 peptide. The protocol:
as §1

The target of assay [9] is T4, Human LRP-8 (isoform 3) expressed on …. As to the kind of experiment: cell-based MSD-ECL binding on cells overexpressing human LRP-8 variant 3 (hLRP8 assay). On the procedure: (§2) A cell-based ECL-MSD binding assay was used to determine antibody affinity. HEK293 cells overexpressing human, monkey or mouse LRP-8 were added onto MSD 96-well plate (MSD Cat# L15XB-3/L11XB-3) and incubated at 37° C. for one hour. Cells were blocked using 15% FBS (Hyclone, Thermo Scientific Cat# SH300700.03) at RT for 30 minutes with mild agitation. Plates were washed with DPBS three times and Abs or DVD-Ig binding proteins were added to the well. After incubation at RT for one hour, plates were washed with DPBS and goat anti-human or anti-mouse Sulfo TAG (MSD Cat#R32AJ-1) was added. Plates were incubated at RT for one hour, washed with DPBS and immersed in MSD read buffer (MSD Cat#R92TD-2) before reading on a MSD SECTOR Imager 6000. EC50 values were obtained using Xlfit4 software system.

For assay [10], the target named is T2, Cynomolgus monkey LRP-8 expressed on …. As to the kind of experiment: cell-based MSD-ECL binding on cells overexpressing cyno LRP-8 variant 1 (cynoLRP8 assay). On the procedure: as §2
For assay [11], the target named is T3, CR1 cyclic peptide of human LRP-8. As to the kind of experiment: antibody titrated on plates coated with 1 ug/ml CR1 peptide (Example 1.12.2); lower table, column ng/ml. The protocol: as §1
The target in assay [12] is T8, CR2 cyclic peptide of human LRP-8 (human, disulfide 1-13).
T8 construct: also called CR2 peptide; conjugated human LRP-8 CR2 peptide
T8 peptide: CADSDFTSDNGHCIHERWK-{Lys(Aoa)-NH2}
As to the kind of experiment: antibody titrated on plates coated with 1 ug/ml CR2 peptide (Example 1.12.2); lower table, column ng/ml. On the procedure:
as §1

Where “and” joins values, the source holds several entries; their conditions need not be identical. Equal entries are not always repeated. *1 amine or outer side, *2 acyl side, *3 side chain or, on linkers, in order; H or OH if unused. Bridges are numbered along the chain shown (N, C = ends). Where no end group is shown, it is not given here. Lys(Aoa) = NOCC(=O)NCCCC[C@H](N[*:1])C(=O)[*:2]

T4 sequence (Q14114 other isoform, or with tags, fused parts or gaps limits assumed): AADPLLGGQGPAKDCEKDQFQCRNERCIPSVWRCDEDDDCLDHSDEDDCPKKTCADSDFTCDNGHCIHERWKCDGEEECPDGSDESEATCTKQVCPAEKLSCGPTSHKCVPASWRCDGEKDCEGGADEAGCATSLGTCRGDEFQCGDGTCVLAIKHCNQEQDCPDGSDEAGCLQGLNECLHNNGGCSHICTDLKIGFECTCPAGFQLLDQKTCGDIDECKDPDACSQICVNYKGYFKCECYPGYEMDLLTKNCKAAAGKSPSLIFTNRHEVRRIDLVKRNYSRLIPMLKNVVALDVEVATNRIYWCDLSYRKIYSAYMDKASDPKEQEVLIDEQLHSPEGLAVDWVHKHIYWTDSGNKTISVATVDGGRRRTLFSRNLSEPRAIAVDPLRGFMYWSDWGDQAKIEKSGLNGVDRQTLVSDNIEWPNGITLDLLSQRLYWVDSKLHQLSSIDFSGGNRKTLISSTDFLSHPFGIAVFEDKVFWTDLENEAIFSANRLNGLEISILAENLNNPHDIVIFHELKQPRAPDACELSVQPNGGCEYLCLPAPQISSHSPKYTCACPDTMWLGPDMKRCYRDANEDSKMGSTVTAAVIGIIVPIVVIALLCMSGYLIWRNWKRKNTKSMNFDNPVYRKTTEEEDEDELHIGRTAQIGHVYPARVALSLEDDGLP

B1: chimeric anti-LRP-8 ML199.11H1.5B2 antibody [mu/hu IgG1/k] LALA (antibody, V domains shown)
VH: EVQLVESGGDLVKPGGSLKLSCAASRFTFSNYGMSWVRQTPDKRLEWVATISSGGRYTYYPDSVKGRFTISRDNAKNTLYLQMSSLRSEDTAMYYCARDYLYAMDYWGQGTSVTVSS
VL: DVVMTQTPLSLPVSLGDQASISCRSSQSLVYSNGNTYLHWYLQKPGQSPKVLMYKVSNRFSGVSDRFSGSGSGTDFTLKISRVEAEDLGVYFCSQSTHVPLTFGAGTKLELK
notes: Mouse variable domains on human IgG1/kappa with L234A, L235A (LALA); also called ML199.11H1.5B2 hFc; ML199.11H1.5B2 mu/hu IgG1 m/k
As usually defined, the EC50 is the concentration that produces a half-maximal response. B1: the binding result in [1] is reported as “no binding”; in [6], “no binding (tested: 10000 ng/ml)”; in assay [7] it was “binds”; in assay [8], “binds”. Also, the “FACS (ratio +/-)” value in assay [2] is 141 ratio. This molecule returned an OD450 in [3] of 4 OD450. In addition, the EC50 in assay [4] was 0.22 nM; in [5], 0.21 nM; in assay [9], 0.0484 µg/mL and 0.32 nM; in [10], 0.0691 µg/mL and 0.46 nM; in assay [11], 0.225 µg/mL; in [12], 0.312 µg/mL.

The record behind these values is US20160200813A1 (AbbVie / Abbott, published 2016).
